Results published in publication PMC9482650, “Quantitative fragmentomics allow affinity mapping of interactomes” (Nature Communications, 2022).

T1: APBA1_1, Q02410
T1 sequence (Q02410 651-752, limits assumed, looked up): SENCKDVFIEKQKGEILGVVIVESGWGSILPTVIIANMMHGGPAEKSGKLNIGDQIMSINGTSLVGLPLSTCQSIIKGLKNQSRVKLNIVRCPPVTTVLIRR

T2: APBA1_2, Q02410
T2 sequence (Q02410 742-832, limits assumed, looked up): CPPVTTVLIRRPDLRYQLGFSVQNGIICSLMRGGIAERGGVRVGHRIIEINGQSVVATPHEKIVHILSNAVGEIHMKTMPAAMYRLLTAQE

T3: DLG3_1, Q92796
T3 sequence (Q92796 125-227, limits assumed, looked up): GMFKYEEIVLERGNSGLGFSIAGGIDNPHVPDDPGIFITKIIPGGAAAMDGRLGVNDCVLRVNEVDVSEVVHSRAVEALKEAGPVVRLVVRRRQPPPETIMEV

T4: DLG3_3, Q92796
T4 sequence (Q92796 374-475, limits assumed, looked up): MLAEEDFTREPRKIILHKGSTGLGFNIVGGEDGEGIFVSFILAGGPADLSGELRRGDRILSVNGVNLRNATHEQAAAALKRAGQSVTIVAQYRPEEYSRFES

T5: GRIP1_3, Q9Y3R0
T5 sequence (Q9Y3R0 247-346, limits assumed, looked up): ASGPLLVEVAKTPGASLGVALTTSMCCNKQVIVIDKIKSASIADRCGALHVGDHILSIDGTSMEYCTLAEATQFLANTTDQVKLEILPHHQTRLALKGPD

T6: GRIP1_5, Q9Y3R0
T6 sequence (Q9Y3R0 568-668, limits assumed, looked up): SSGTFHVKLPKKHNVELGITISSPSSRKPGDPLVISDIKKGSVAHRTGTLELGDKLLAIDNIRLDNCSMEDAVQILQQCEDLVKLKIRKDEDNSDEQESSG

T7: LNX2_2, Q8N448
T7 sequence (Q8N448 334-432, limits assumed, looked up): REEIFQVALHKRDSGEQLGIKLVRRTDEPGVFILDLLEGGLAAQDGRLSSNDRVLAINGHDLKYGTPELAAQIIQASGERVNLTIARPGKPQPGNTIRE

T8: MPP2, Q14168
T8 sequence (Q14168 180-250, limits assumed, looked up): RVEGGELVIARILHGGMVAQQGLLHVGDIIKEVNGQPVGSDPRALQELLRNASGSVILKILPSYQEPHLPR

T9: NHERF3_1, Q5T2W1
T9 sequence (Q5T2W1 4-100, limits assumed, looked up): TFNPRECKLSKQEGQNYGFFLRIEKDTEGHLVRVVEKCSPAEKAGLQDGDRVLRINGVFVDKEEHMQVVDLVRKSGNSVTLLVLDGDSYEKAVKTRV

T10: RHPN1, Q8TCX5
T10 sequence (Q8TCX5 508-602, limits assumed, looked up): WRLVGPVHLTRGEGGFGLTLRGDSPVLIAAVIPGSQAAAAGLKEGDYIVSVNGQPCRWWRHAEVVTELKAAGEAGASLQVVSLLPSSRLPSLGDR

T11: SYNJ2BP, P57105
T11 sequence (P57105 8-110, limits assumed, looked up): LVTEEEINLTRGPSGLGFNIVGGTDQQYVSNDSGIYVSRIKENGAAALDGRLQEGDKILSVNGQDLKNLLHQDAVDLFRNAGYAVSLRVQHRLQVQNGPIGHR

T12: TIAM2, Q8IVF5
T12 sequence (Q8IVF5 885-986, limits assumed, looked up): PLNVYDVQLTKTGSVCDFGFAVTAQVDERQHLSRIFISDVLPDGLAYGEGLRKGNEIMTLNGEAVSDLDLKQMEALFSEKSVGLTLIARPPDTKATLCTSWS


The binders below were run against AHNAK1, Q09666 (assay: holdup assay). Conditions: plain residues with an end cap or a label only (N-terminal biotin on a linker: ado-ado).
Sequence of AHNAK1, Q09666 (Q09666 4-100): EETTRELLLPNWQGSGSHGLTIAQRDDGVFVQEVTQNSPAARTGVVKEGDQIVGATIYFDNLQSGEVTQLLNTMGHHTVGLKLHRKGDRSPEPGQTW
Parameters: key: below the threshold = too weak to quantify, mostly under pKd 3.1 to 4

Row | Binder | pKd
1 | RKPKPSSSCC [RAB9A, P51151] | below the threshold
2 | TASPAKETSF [SLC2A7, Q6PXP3] | below the threshold

What follows are binders tested against T1, APBA1_1, Q02410 (assay: holdup assay). Conditions: plain residues with an end cap or a label only (N-terminal biotin on a linker: ado-ado).
Parameters: key: below the threshold = too weak to quantify, mostly under pKd 3.1 to 4

Row | Binder | pKd
3 | RKPKPSSSCC [RAB9A, P51151] | below the threshold
4 | TASPAKETSF [SLC2A7, Q6PXP3] | below the threshold

What follows are binders tested against T2, APBA1_2, Q02410 (assay: holdup assay). Conditions: plain residues with an end cap or a label only (N-terminal biotin on a linker: ado-ado).
Parameters: key: below the threshold = too weak to quantify, mostly under pKd 3.1 to 4

Row | Binder | pKd
5 | RKPKPSSSCC [RAB9A, P51151] | below the threshold
6 | TASPAKETSF [SLC2A7, Q6PXP3] | below the threshold

What follows are binders tested against T3, DLG3_1, Q92796 (assay: holdup assay). Conditions: plain residues with an end cap or a label only (N-terminal biotin on a linker: ado-ado).
Parameters: key: below the threshold = too weak to quantify, mostly under pKd 3.1 to 4

Row | Binder | pKd
7 | RKPKPSSSCC [RAB9A, P51151] | below the threshold
8 | TASPAKETSF [SLC2A7, Q6PXP3] | below the threshold

Each binder was assayed against T4, DLG3_3, Q92796 (assay: holdup assay). Conditions: plain residues with an end cap or a label only (N-terminal biotin on a linker: ado-ado).
Parameters: key: below the threshold = too weak to quantify, mostly under pKd 3.1 to 4

Row | Binder | pKd
9 | RKPKPSSSCC [RAB9A, P51151] | below the threshold
10 | TASPAKETSF [SLC2A7, Q6PXP3] | below the threshold

What follows are binders tested against DLG4_1, P78352 (assay: holdup assay). Conditions: plain residues with an end cap or a label only (N-terminal biotin on a linker: ado-ado).
Sequence of DLG4_1, P78352 (P78352 62-152): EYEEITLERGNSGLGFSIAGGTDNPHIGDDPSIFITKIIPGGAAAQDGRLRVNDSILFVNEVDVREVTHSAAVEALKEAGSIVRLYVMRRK
Parameters: key: below the threshold = too weak to quantify, mostly under pKd 3.1 to 4

Row | Binder | pKd
11 | RKPKPSSSCC [RAB9A, P51151] | below the threshold
12 | TASPAKETSF [SLC2A7, Q6PXP3] | below the threshold

What follows are binders tested against FRMPD2_3, Q68DX3 (assay: holdup assay). Conditions: plain residues with an end cap or a label only (N-terminal biotin on a linker: ado-ado).
Sequence of FRMPD2_3, Q68DX3 (Q68DX3 1073-1166): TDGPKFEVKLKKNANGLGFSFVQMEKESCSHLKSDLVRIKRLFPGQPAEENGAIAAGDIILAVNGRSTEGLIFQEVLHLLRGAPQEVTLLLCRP
Parameters: key: below the threshold = too weak to quantify, mostly under pKd 3.1 to 4

Row | Binder | pKd
13 | RKPKPSSSCC [RAB9A, P51151] | below the threshold
14 | TASPAKETSF [SLC2A7, Q6PXP3] | below the threshold

What follows are binders tested against GRID2IP_2, A4D2P6 (assay: holdup assay). Conditions: plain residues with an end cap or a label only (N-terminal biotin on a linker: ado-ado).
Sequence of GRID2IP_2, A4D2P6 (A4D2P6 272-370): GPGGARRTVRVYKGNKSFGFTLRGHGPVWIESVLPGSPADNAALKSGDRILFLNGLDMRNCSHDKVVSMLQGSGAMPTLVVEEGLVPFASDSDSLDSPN
Parameters: key: below the threshold = too weak to quantify, mostly under pKd 3.1 to 4

Row | Binder | pKd
15 | RKPKPSSSCC [RAB9A, P51151] | 3.54
16 | TASPAKETSF [SLC2A7, Q6PXP3] | below the threshold

The binders below were run against T5, GRIP1_3, Q9Y3R0 (assay: holdup assay). Conditions: plain residues with an end cap or a label only (N-terminal biotin on a linker: ado-ado).
Parameters: key: below the threshold = too weak to quantify, mostly under pKd 3.1 to 4

Row | Binder | pKd
17 | RKPKPSSSCC [RAB9A, P51151] | below the threshold
18 | TASPAKETSF [SLC2A7, Q6PXP3] | below the threshold

The binders below were run against T6, GRIP1_5, Q9Y3R0 (assay: holdup assay). Conditions: plain residues with an end cap or a label only (N-terminal biotin on a linker: ado-ado).
Parameters: key: below the threshold = too weak to quantify, mostly under pKd 3.1 to 4

Row | Binder | pKd
19 | RKPKPSSSCC [RAB9A, P51151] | below the threshold
20 | TASPAKETSF [SLC2A7, Q6PXP3] | below the threshold

Each binder was assayed against GRIP2_4, Q9C0E4 (assay: holdup assay). Conditions: plain residues with an end cap or a label only (N-terminal biotin on a linker: ado-ado).
Sequence of GRIP2_4, Q9C0E4 (Q9C0E4 446-548): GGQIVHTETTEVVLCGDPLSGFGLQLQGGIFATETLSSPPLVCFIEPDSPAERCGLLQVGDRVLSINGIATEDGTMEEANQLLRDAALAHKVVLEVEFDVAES
Parameters: key: below the threshold = too weak to quantify, mostly under pKd 3.1 to 4

Row | Binder | pKd
21 | RKPKPSSSCC [RAB9A, P51151] | below the threshold
22 | TASPAKETSF [SLC2A7, Q6PXP3] | below the threshold

What follows are binders tested against GRIP2_5, Q9C0E4 (assay: holdup assay). Conditions: plain residues with an end cap or a label only (N-terminal biotin on a linker: ado-ado).
Sequence of GRIP2_5, Q9C0E4 (Q9C0E4 544-642): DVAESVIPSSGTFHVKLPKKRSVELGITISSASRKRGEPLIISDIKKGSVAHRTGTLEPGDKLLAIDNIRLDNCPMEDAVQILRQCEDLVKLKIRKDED
Parameters: key: below the threshold = too weak to quantify, mostly under pKd 3.1 to 4

Row | Binder | pKd
23 | RKPKPSSSCC [RAB9A, P51151] | below the threshold
24 | TASPAKETSF [SLC2A7, Q6PXP3] | below the threshold

The binders below were run against HTRA1, Q92743 (assay: holdup assay). Conditions: plain residues with an end cap or a label only (N-terminal biotin on a linker: ado-ado).
Sequence of HTRA1, Q92743 (Q92743 360-477): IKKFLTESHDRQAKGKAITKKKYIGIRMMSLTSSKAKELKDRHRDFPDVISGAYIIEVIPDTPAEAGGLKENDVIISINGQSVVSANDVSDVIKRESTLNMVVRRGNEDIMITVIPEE
Parameters: key: below the threshold = too weak to quantify, mostly under pKd 3.1 to 4

Row | Binder | pKd
25 | RKPKPSSSCC [RAB9A, P51151] | below the threshold
26 | TASPAKETSF [SLC2A7, Q6PXP3] | below the threshold

Each binder was assayed against IL16_3, Q14005 (assay: holdup assay). Conditions: plain residues with an end cap or a label only (N-terminal biotin on a linker: ado-ado).
Sequence of IL16_3, Q14005 (Q14005 1107-1207): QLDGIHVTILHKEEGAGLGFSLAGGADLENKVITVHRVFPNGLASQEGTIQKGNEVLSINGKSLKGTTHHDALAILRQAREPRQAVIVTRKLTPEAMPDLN
Parameters: key: below the threshold = too weak to quantify, mostly under pKd 3.1 to 4

Row | Binder | pKd
27 | RKPKPSSSCC [RAB9A, P51151] | below the threshold
28 | TASPAKETSF [SLC2A7, Q6PXP3] | below the threshold

Each binder was assayed against Inadl_8, Q8NI35 (assay: holdup assay). Conditions: plain residues with an end cap or a label only (N-terminal biotin on a linker: ado-ado).
Sequence of Inadl_8, Q8NI35 (Q8NI35 1425-1530): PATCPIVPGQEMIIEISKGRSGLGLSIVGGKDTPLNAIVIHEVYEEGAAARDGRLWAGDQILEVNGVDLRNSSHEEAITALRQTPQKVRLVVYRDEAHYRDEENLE
Parameters: key: below the threshold = too weak to quantify, mostly under pKd 3.1 to 4

Row | Binder | pKd
29 | RKPKPSSSCC [RAB9A, P51151] | below the threshold
30 | TASPAKETSF [SLC2A7, Q6PXP3] | below the threshold

The binders below were run against T7, LNX2_2, Q8N448 (assay: holdup assay). Conditions: plain residues with an end cap or a label only (N-terminal biotin on a linker: ado-ado).
Parameters: key: below the threshold = too weak to quantify, mostly under pKd 3.1 to 4

Row | Binder | pKd
31 | RKPKPSSSCC [RAB9A, P51151] | below the threshold
32 | TASPAKETSF [SLC2A7, Q6PXP3] | below the threshold

The binders below were run against MAGI1_1, Q96QZ7 (assay: holdup assay). Conditions: plain residues with an end cap or a label only (N-terminal biotin on a linker: ado-ado).
Sequence of MAGI1_1, Q96QZ7 (Q96QZ7 1-106): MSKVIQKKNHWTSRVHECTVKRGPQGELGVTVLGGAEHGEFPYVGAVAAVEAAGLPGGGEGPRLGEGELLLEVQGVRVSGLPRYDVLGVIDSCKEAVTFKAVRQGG
Parameters: key: below the threshold = too weak to quantify, mostly under pKd 3.1 to 4

Row | Binder | pKd
33 | RKPKPSSSCC [RAB9A, P51151] | below the threshold
34 | TASPAKETSF [SLC2A7, Q6PXP3] | below the threshold

What follows are binders tested against T8, MPP2, Q14168 (assay: holdup assay). Conditions: plain residues with an end cap or a label only (N-terminal biotin on a linker: ado-ado).
Parameters: key: below the threshold = too weak to quantify, mostly under pKd 3.1 to 4

Row | Binder | pKd
35 | RKPKPSSSCC [RAB9A, P51151] | below the threshold
36 | TASPAKETSF [SLC2A7, Q6PXP3] | below the threshold

Each binder was assayed against T9, NHERF3_1, Q5T2W1 (assay: holdup assay). Conditions: plain residues with an end cap or a label only (N-terminal biotin on a linker: ado-ado).
Parameters: key: below the threshold = too weak to quantify, mostly under pKd 3.1 to 4

Row | Binder | pKd
37 | RKPKPSSSCC [RAB9A, P51151] | 3.61
38 | TASPAKETSF [SLC2A7, Q6PXP3] | 4.95

The binders below were run against NOS1, P29475 (assay: holdup assay). Conditions: plain residues with an end cap or a label only (N-terminal biotin on a linker: ado-ado).
Sequence of NOS1, P29475 (P29475 9-101): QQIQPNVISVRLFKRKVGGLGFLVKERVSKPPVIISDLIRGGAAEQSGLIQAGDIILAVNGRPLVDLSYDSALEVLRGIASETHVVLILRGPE
Parameters: key: below the threshold = too weak to quantify, mostly under pKd 3.1 to 4

Row | Binder | pKd
39 | RKPKPSSSCC [RAB9A, P51151] | below the threshold
40 | TASPAKETSF [SLC2A7, Q6PXP3] | below the threshold

These binders were tested against PDLIM1, O00151 (assay: holdup assay). Conditions: plain residues with an end cap or a label only (N-terminal biotin on a linker: ado-ado).
Sequence of PDLIM1, O00151 (O00151 1-87): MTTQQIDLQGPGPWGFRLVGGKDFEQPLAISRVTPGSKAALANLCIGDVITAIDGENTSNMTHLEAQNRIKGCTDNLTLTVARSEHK
Parameters: key: below the threshold = too weak to quantify, mostly under pKd 3.1 to 4

Row | Binder | pKd
41 | RKPKPSSSCC [RAB9A, P51151] | below the threshold
42 | TASPAKETSF [SLC2A7, Q6PXP3] | below the threshold

Each binder was assayed against PICK1, Q9NRD5 (assay: holdup assay). Conditions: plain residues with an end cap or a label only (N-terminal biotin on a linker: ado-ado).
Sequence of PICK1, Q9NRD5 (Q9NRD5 17-115): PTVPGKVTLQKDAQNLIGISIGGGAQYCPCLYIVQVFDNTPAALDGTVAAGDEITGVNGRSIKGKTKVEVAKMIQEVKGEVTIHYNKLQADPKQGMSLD
Parameters: key: below the threshold = too weak to quantify, mostly under pKd 3.1 to 4

Row | Binder | pKd
43 | RKPKPSSSCC [RAB9A, P51151] | below the threshold
44 | TASPAKETSF [SLC2A7, Q6PXP3] | below the threshold

These binders were tested against T10, RHPN1, Q8TCX5 (assay: holdup assay). Conditions: plain residues with an end cap or a label only (N-terminal biotin on a linker: ado-ado).
Parameters: key: below the threshold = too weak to quantify, mostly under pKd 3.1 to 4

Row | Binder | pKd
45 | RKPKPSSSCC [RAB9A, P51151] | below the threshold
46 | TASPAKETSF [SLC2A7, Q6PXP3] | 3.97

These binders were tested against SNX27, Q96L92 (assay: holdup assay). Conditions: plain residues with an end cap or a label only (N-terminal biotin on a linker: ado-ado).
Parameters: key: below the threshold = too weak to quantify, mostly under pKd 3.1 to 4

Row | Binder | pKd
47 | RKPKPSSSCC [RAB9A, P51151] | below the threshold
48 | TASPAKETSF [SLC2A7, Q6PXP3] | 5.48

These binders were tested against T11, SYNJ2BP, P57105 (assay: holdup assay). Conditions: plain residues with an end cap or a label only (N-terminal biotin on a linker: ado-ado).
Parameters: key: below the threshold = too weak to quantify, mostly under pKd 3.1 to 4

Row | Binder | pKd
49 | RKPKPSSSCC [RAB9A, P51151] | below the threshold
50 | TASPAKETSF [SLC2A7, Q6PXP3] | below the threshold

These binders were tested against T12, TIAM2, Q8IVF5 (assay: holdup assay). Conditions: plain residues with an end cap or a label only (N-terminal biotin on a linker: ado-ado).
Parameters: key: below the threshold = too weak to quantify, mostly under pKd 3.1 to 4

Row | Binder | pKd
51 | RKPKPSSSCC [RAB9A, P51151] | 3.8
52 | TASPAKETSF [SLC2A7, Q6PXP3] | 3.63
